Experimental data published in patent publication US20120231021A1 (GREEN CROSS, published 2012).
Numbering of substitutions follows the chain as printed. Each block holds one binder with its values, some of them ahead of it.

Legend:
[1] = molecular target: T1, epidermal growth factor receptor (EGFR) on tumor cells (A431 epidermoid carcinoma cells); MDA-MB-231 breast … (UniProt P00533 25-1210, limits assumed); test: flow cytometry on A431 cells, 10 µg antibody
T1 construct: whole, on cells; Endogenous receptor of the cell lines; also called EGFR overexpressed in a cancer cell line (A431); EGFR in A431 cells

[2] = molecular target: T2, epidermal growth factor receptor (EGFR) (Sigma, U.S), purified protein (UniProt P00533 25-1210, limits assumed); test: competitive ELISA, EGFR-coated plate with soluble EGFR as competitor (FIG. 9)
T2 construct: also called EGFR antigen
Protocol: 100 μL of EGFR (Sigma, U.S) at a 2 μg/mL dilution in PBS was added to each well of a plate and incubated overnight at 4° C. Each well was washed once with PBST, 300 μL of 1% BSA-PBS solution was added to each well, and stored for 1 hour at room temperature.
2 μg of EGFR was diluted by a two-fold and 10 μL of the diluted EGFR was added to each well of the plate. Then, 90 μL of the antibody diluted to the optimum concentration determined in (1) was added to each well, incubated for 2 hours at room temperature, and washed 4 times with PBST.

binding result [1]: binds
B1: human antibody ER2 (antibody, V domains shown)
VH: EVQLVESGGGVVQPGGSLRLSCAASGFTFSDYDMSWIRQAPGKGLEWVSGILGGSERSYYRDSVKGRFTISRDNSRKTLYLQMNSLRAEDTAVYYCARHGSPGYTLYAWDYWGQGTTVTVSS
VL: DIVMTQTPLSLPVTPGEPASISCRSNQDLTHSNGNTYLEWYLQKPGQSPRLLIYKVSNRFSGVPDRFSGSGAGTDFTLRISRVEAEDVGVYYCMQGTHWPWTFGQGTKVDIKR
notes: also called ER2 antibody

fold lower affinity than C225 [2]: 2 times
percent of affinity relative to C225 and M96 [2]: ~63%
B2: human antibody ER79 (antibody, V domains shown)
VH: B1 VH
VL: B1 VL with N26S, D28S, L29V, T30D, H31M, S32G, N33I, T36N
notes: also called ER79 antibody
